{"source": "paper PMC4834876", "about": "(Journal of molecular biology, 2016)", "binders": {"B1": {"name": "EB1_(248), activated fragment of EB1 lacking the auto-inhibitory acidic tail (domain or fragment)", "chain": "MAVNVYSTSVTSDNLSRHDMLAWINESLQLNLTKIEQLCSGAAYCQFMDMLFPGSIALKKVKFQAKLEHEYIQNFKILQAGFKRMGVDKIIPVDKLVKGKFQDNFEFVQWFKKFFDANYDGKDYDPVAARQGQETAVAPSLVAPALNKPKKPLTSSSAAPQRPISTQRTAAAPKAGPGVVRKNPGVGNGDDEAAELMQQVNVLKLTVEDLEKERDFYFGKLRNIELICQENEGENDPVLQRIVDILYA"}}, "target": "F-actin (filamentous actin) from rabbit muscle (rabbit, UniProt P68135 1-377)", "assay": "co-sedimentation"}
{"binder": "B1", "values": [{"measurement": "Kd", "value": "~7", "unit": "µM"}]}
